B1: unnamed (protein)
chain: MTKVNFQNKEEKRIVGILSIPKGKGPYPAVIFCHGLGSSKESPLIKTVSKKVRQVGFATFTFDCLGSRESDPYHSTAGITKRLSDLDAAIDFLAKHPRVDAERMGLYGHSLGGSVALVQASRDKRIKTAVLISPVIDFRRTGLRPINKKHMDEWDKREEILTINRKNKIVFRIPWDFFVDITSYDFVDIARKVACPVMIIHGTQDSLVPIQQSQILCQNLKNSELISLPWQKHFTRTTRKRKEAIVNSIFWFNKYLKKSATPSN
B2: unnamed (protein)
chain: APAGPYNVGYVIYDFPFVSPDGALQSLTTAVWYPTDAEPTPYTYGDGRATGLVSLDGPVSPAGRPFPLVVFSHGYGGGGTANLFLTKHLASWGFVVASPDYPDPDQMVRIRGGGTNTPILQYLRNALRLARTGLDFPFDDYAFRPAGLRTVIDQMLAQNADDTSALHGAIDPDRIAVAGHSLGTFTALSVAGLDPQWTDPRIRAVLALSGGVFMWPTQDFAQVSVPIMFMYGEREAGQRERIGLADVAALTRAAYDVCQPPKFMLEVKGGTHFTFGQRVYEERRAGGDASLPERQVAVINSYAAAFLRLYLRNDTSAAATLQQTDPMLTLYRHDM
B3: unnamed (protein)
chain: WGAQNHFYETVLVDTDENPRETHLVGQIDGVFTDENYGEYEVTIYYPAINSGVSQPPDKSGAPYPAIIFAHGWLTSKELYTWIGNYCAAQGYVTLLFSVPDPTSLEAFRQSVTGITKSIDYLLVQNQGGLLSGLINTSRIGVMGHSMGAMAVLIATTEDSRIKAAVSLAPGYFGSTTKKYVEACKSIRVPIQFQAGSLDKICPPSAVETYYNAVRIPPKEIIVINGADHIQFSDAPATLWANITLEEQHETSRKYFIAWFNYYLRDDFNYYAYLFGSEARKDMENGILSSLEYVERFDC
B4: unnamed (protein)
chain: QVYEIGHTTITFNDPSRSRDIETEIYYPADVAGENVAVSTGTFPVCVFGHGFTMSVDAYENFSDVLVPQGYIILLPSTEDGFSPNHDEFGLDLAFLVDEFQLENTNGTSLFYGAIAPETALMGHSMGGGCSFLAAESNSSVTTLVNFAAAETNTSAIAAAANITIPAVVFSGEVDPVAPPADHQIPMYNALASECKTYISINDGGHCYFANYNFYCTMGEEAMMPGGPPLTREEQQQTTLDFLSIWLDYTLKGNANALTVFNDSLASSPRITYQQDCNLTILDQINPNAEFKVYPNPADQFFILESSREIKHVLIYNSMGSICLERNKRHRIDISELPEGMYVIKAITESGSFTKKIMVLH
B5: unnamed (protein)
chain: CGSDDDSAPGSPAGNEPFYAPDELGPFAVGRSTFTIVDADRGDRELPVDVWYPVDPEEATGAPSLYQVSILVWIFPLVFTTPSEVALDSPPVSEARRFPLIVFSHGSGGLRYQSFFLTEILASHGFVVVAPSHVGNTLLDEINGTFAPLTDMMVARPLDVSYLITRMLEKNEDAADPLYGTIDADRIGVCGHSFGGFTSLAMAAGFGADPPPDLDPEIPEDLEPVPPDPRVDAIVPIAPASSWFGDSELAGIDVPTLIIGGTLDTTTPIATENVRPYEMIPAPVFRADLDGAVHFSFSNSCDLIQGMREKGIPQALIDALLGAEFTAPCNPPSLDVEEAHRITNLYTVSLFETFLEDDSRYEKYLTEAYAEASEPNVTFYANPD
B6: unnamed (protein)
chain: SRTRQILTEIYYPADTAGEEVPVAEPGAEGFPAVSFAHGRRMAWSAYSNFWEMLAPQGYIIVFPCTEMGLSPNHLDFALDCLFDAHKLQELNDLGTSIFYQKVGDTFAVTGHSMGGVVSFIAAIEDPTVTAIANFACGQASSYDLASVTAPALIFAGSDDYMTPVDQYQLLFYNELSSTCKALLILQGANHCQYAQYTSVCDDIEDQYPDPALTRTQQHAVTSTLLIPWLDYMLKGDEEAWTEFNVLAGDGDVTETHMICDLPFNTPTPASPPTPFVPATSSGGIGTLIVVISGTLALLSSRRK
B7: unnamed (protein)
chain: CTDNADTDGADGAEGSATEEGGTEESGKESGEESKADLAALAAEVEEPGPWAVGTTTVETTGARDRQLPVQVWYPVDTAVAATAEPATYDFPGIEVPAGAVTGASPAPGPFPLVIYSHGNGGLRYVSSFLAEHMASHGFVVMAPDHVGNTALDTFLGSRDETDQVAEDRPVDVQAVIDAATSGQAGLEEVSPVVDGEEVAVIGHSFGGYTALALASRQAEGDDSLDAIVGLAPASSGVDDTTLEAVGVPTLLISGTLDETTPIEEDTLRPAELVSGRPLVRADIDGAGHQSFTDVCDYLGIAESQPDLPAALVEAPQEYALEGCAPELIVIDEAQRITNRLVTAFLLETLYADDSWSPLLSPGAEEGQPLALLERED

substrate: BHET; test: Proxy for plastic degradation [HPLC-UV] (mmol); settings: pH 8

Row | Protein | Proxy for plastic degradation
1 | B1 | 0.1
2 | B2 | 0
3 | B3 | 0
4 | B4 | 0
5 | B5 | 0
6 | B6 | 0
7 | B7 | 0

substrate: PET; test: Proxy for plastic degradation [HPLC-UV] (mmol); settings: pH 8; 30 °C

Row | Protein | Proxy for plastic degradation
8 | B1 | 0
9 | B2 | 0
10 | B3 | 0
11 | B4 | 0
12 | B5 | 0
13 | B6 | 0
14 | B7 | 0

same assay, conditions: pH 8; 60 °C

Row | Protein | Proxy for plastic degradation
15 | B1 | 0
16 | B2 | 0
17 | B4 | 0
18 | B5 | 0
19 | B6 | 0
20 | B7 | 0

same assay, conditions: pH 6

Row | Protein | Proxy for plastic degradation
21 | B3 | 0.11

same assay, conditions: pH 6.5

Row | Protein | Proxy for plastic degradation
22 | B3 | 0.96

same assay, conditions: pH 7

Row | Protein | Proxy for plastic degradation
23 | B3 | 0.47

same assay, conditions: pH 7.5

Row | Protein | Proxy for plastic degradation
24 | B3 | 0.4

same assay, conditions: pH 8; 40 °C

Row | Protein | Proxy for plastic degradation
25 | B3 | 0.39

same assay, conditions: pH 8; 50 °C

Row | Protein | Proxy for plastic degradation
26 | B3 | 2.78

same assay, conditions: pH 8; 70 °C

Row | Protein | Proxy for plastic degradation
27 | B3 | 0.05

same assay, conditions: pH 8; 80 °C

Row | Protein | Proxy for plastic degradation
28 | B3 | 0.04

— the PETadex activity labels (doi:10.1093/ismejo/wraf068)
